From paper PMC10427625, “Structural basis for negative regulation of the Escherichia coli maltose system” (Nature Communications, 2023)
Positions count from the first letter of the chain named.

T1: MalT-E140A, N-terminally His-tagged (Escherichia coli, UniProt P06993 1-901, E140A)
T1 construct: MalT of Escherichia coli, variant of plasmid pOM206 made by site-directed mutagenesis; source: E. coli BL21 (DE3) ΔmalT220, purified (Ni Sepharose, gel filtration)
T1 sequence (looked up): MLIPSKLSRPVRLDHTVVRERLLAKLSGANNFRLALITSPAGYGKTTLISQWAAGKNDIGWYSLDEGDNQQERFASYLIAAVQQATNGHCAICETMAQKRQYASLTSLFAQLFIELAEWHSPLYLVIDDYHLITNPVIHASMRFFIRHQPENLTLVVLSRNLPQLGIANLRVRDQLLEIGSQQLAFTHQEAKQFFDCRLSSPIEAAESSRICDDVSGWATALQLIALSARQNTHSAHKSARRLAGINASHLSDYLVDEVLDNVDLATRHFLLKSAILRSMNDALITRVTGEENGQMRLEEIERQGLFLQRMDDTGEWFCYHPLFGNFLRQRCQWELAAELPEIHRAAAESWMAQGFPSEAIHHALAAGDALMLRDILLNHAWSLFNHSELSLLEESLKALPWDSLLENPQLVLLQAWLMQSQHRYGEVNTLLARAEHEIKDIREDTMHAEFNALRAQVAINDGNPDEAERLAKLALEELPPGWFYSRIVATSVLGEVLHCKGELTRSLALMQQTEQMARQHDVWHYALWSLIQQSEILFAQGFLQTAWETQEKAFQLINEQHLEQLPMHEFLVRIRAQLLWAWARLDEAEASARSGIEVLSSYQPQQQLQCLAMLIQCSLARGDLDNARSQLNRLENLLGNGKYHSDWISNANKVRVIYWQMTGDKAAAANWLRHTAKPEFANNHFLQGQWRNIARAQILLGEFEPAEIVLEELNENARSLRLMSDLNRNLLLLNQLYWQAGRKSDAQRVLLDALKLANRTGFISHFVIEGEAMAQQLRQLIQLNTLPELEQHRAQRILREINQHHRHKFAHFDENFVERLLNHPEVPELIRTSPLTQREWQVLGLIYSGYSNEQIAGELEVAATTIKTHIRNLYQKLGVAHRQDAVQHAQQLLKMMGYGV

T2: MalT-N169A, N-terminally His-tagged (Escherichia coli, UniProt P06993 1-901, N169A)
T2 construct: MalT of Escherichia coli, variant of plasmid pOM206 made by site-directed mutagenesis; source: E. coli BL21 (DE3) ΔmalT220, purified (Ni Sepharose, gel filtration)
T2 sequence (looked up): T1 sequence (looked up) with A140E, N169A

B1: MalT (wild type), N-terminally His-tagged (natural protein, Escherichia coli, UniProt P06993 1-901, looked up)
chain: T1 sequence (looked up) with A140E
notes: Purified with 0.1 mM ADP or 0.4 mM ATP; the elution at 103 kDa fits the whole protein; In PDB 8BOB only residues 1-423 are well defined; also called WT MalT; MalT WT; source: E. coli BL21 (DE3) ΔmalT220, purified (Ni Sepharose, gel filtration)
B2: MalY (wild type), GST tag removed (enzyme, Escherichia coli, UniProt P23256 1-390, looked up)
chain: MFDFSKVVDRHGTWCTQWDYVADRFGTADLLPFTISDMDFATAPCIIEALNQRLMHGVFGYSRWKNDEFLAAIAHWFSTQHYTAIDSQTVVYGPSVIYMVSELIRQWSETGEGVVIHTPAYDAFYKAIEGNQRTVMPVALEKQADGWFCDMGKLEAVLAKPECKIMLLCSPQNPTGKVWTCDELEIMADLCERHGVRVISDEIHMDMVWGEQPHIPWSNVARGDWALLTSGSKSFNIPALTGAYGIIENSSSRDAYLSALKGRDGLSSPSVLALTAHIAAYQQGAPWLDALRIYLKDNLTYIADKMNAAFPELNWQIPQSTYLAWLDLRPLNIDDNALQKALIEQEKVAIMPGYTYGEEGRGFVRLNAGCPRSKLEKGVAGLINAIRAVR
notes: MalY, PLP-dependent dimeric enzyme of E. coli; full-length malY amplified from E. coli genomic DNA, cloned in pGEX-6P-1; the printed mass of 2 × 43.5 kDa fits the untagged protein; Each subunit holds the cofactor PLP; also called MalY WT; source: E. coli BL21 (DE3) ΔmalT220, purified (Glutathione Sepharose, gel filtration); not shown: GST, N-terminal, cleaved
B3: N-terminally GST-tagged MalY (enzyme, Escherichia coli, UniProt P23256 1-390, looked up)
chain: B2 chain
notes: MalY of E. coli; full-length malY amplified from E. coli genomic DNA, cloned in pGEX-6P-1; Bait of the pull-down; 10 μM PLP present; not shown: GST, N-terminal, kept

Key:
[1] = target: B2; test: cryo-EM structure; purified MalT-MalY complex at about 0.5 mg/ml, ADP and PLP bound; 2.94 Å, C2 symmetry; conditions: both partners purified
[2] = target: the molecule itself; test: SEC; Superdex 200 Increase 10/300 GL, in the presence of 1 mM maltotriose and 0.1 mM ADP; same molar amounts of MalT and MalY WT or MalY-D182A/E185A/S218A, separately or together; fractions on SDS-PAGE
[3] = target: B1; test: SEC; Superdex 200 Increase 10/300 GL, 4 °C, in the presence of ADP; MalT (buffer A, 0.1 mM ADP) and MalY (buffer TKCl, 10 μM PLP) each alone, or incubated at a 1:1 molar ratio on ice for 30 min and run in buffer TKCl with 0.1 mM ADP and 10 μM PLP; conditions: both partners purified
[4] = target: the molecule itself; test: as above
[5] = target: B1; test: pull-down; GST-tagged MalY incubated with an excess of WT or mutant MalT on ice for 30 min, Glutathione Sepharose 4B, buffer TKCl with 0.1 mM ADP and 10 μM PLP; elution with 20 mM glutathione, SDS-PAGE, Coomassie; conditions: both partners purified
[6] = target: T1, MalT-E140A, N-terminally His-tagged; test: as above; conditions: both partners purified
[7] = target: T2, MalT-N169A, N-terminally His-tagged; test: as above; conditions: both partners purified

B1
stoichiometry N [1]: 1 MalT per MalY (printed as 2:2) | binding result [2]: binds

B2
binding result [3]: binds | stoichiometry N [4]: 2

B3
binding result [5]: binds | binding result [6]: binds | binding result [7]: binds
